Measured values taken from patent publication US7834144B2 (priority 2005, dated 2010).
Where “and” joins values, the source holds several entries; their conditions need not be identical. Equal values may be shown once. Read-outs that look alike come from different tables or passages of the source. Where no end group is shown, it is not given here. [ ]: non-standard residue; d: D form. Nab = not defined here; Nbn = not defined here

Assays:
[1] = biological target: T1, PrP^Sc (Homo sapiens, UniProt P04156); format: binding
[2] = biological target: T2, PrPc (Homo sapiens, UniProt P04156); format: binding
[3] = biological target: T1, PrP^Sc
[4] = biological target: T2, PrPc; details: for LU, Pulldown, PrPC / pg, Pulldown, PrPC: 3M GdnSCN; for pg, Pulldown, PrPC: rPrP standard curve
[5] = biological target: T1, PrP^Sc; details: Table 15
[6] = biological target: T2, PrPc; details: Table 15
[7] = biological target: T1, PrP^Sc; details: Table 16
[8] = biological target: T2, PrPc; details: Table 16
[9] = biological target: T1, PrP^Sc; remark: listed apart in the source
[10] = biological target: T1, PrP^Sc; remark: listed apart in the source
[11] = biological target: T1, PrP^Sc; remark: listed apart in the source
[12] = biological target: T2, PrPc
[13] = biological target: T1, PrP^Sc; details: folded PrP^Sc pulled down by XIIb
[14] = Table 7, covalently bound to magnetic beads, 70% human plasma
[15] = 70 ul plasma (70%) + 50 nl 10% normal BH
[16] = 15 μl GdnSCN 3M, pH 5.9, 210 μl H20, final pH 6.0
[17] = H3PO4 (50 μl) 0.00007M, pH 4, NaOH (25 μl) 0.0031N
[18] = H3PO4 (50 μl) 0.00075M, pH 3, NaOH (25 μl) 0.031N
[19] = H3PO4 (50 μl) 0.12M, pH 2, NaOH (25 μl) 0.31N
[20] = H3PO4 (50 μl) 0.5M, pH 1, NaOH (25 μl) 3.1N
[21] = NaOH (50 μl) 0.0001M, pH 10, NaH2PO4 (20 μl) 0.0003M
[22] = NaOH (50 μl) 0.001M, pH 11, NaH2PO4 (20 μl) 0.003M
[23] = NaOH (50 μl) 0.1M, pH 12, NaH2PO4 (20 μl) 0.03M
[24] = NaOH (50 μl) 0.1M, pH 13, NaH2PO4 (20 μl) 0.3M
[25] = 50 μl GdnSCN 3M, pH 5.9, 50 μl NaHCO3, final pH 8.5
[26] = vCJD 10 nL BH/asy, 3F4 capture, C2-AP detection
[27] = vCJD 10 nL BH/asy, C17 capture, C2-AP detection

## Peptoid Reagent XIIb: peptoid reagent comprising SEQ ID NO: 240, Nab-Nab-Nab-Nbn-Nab-Nbn, covalently bound to magnetic beads ([Nab][Nab][Nab][Nbn][Nab][Nbn]; reading uncertain; also: covalently bound to magnetic beads, printed as Nab-Nab-Nab-Nbn-Nab-Nbn)
[1]; [14]
  Mean: 174.3
  Mean (% of 68): 126.4%
[1]; Table 10, 0.833 nL human vCJD 10% brain homogenate, 70% human plasma, covalently attached to beads
  Mean binding: 49.2
[1]; Table 10, 2.5 nL human vCJD 10% brain homogenate, 70% human plasma, covalently attached to beads
  Mean binding: 57.3
[1]; Table 10, 7.5 nL human vCJD 10% brain homogenate, 70% human plasma, covalently attached to beads
  Mean binding: 121.1
[1]; Table 11, TBSTT with 70% Human Plasma containing 20 nL 10% human CJD brain homogenate
  Mean binding: 1390.8
[1]; Table 13, Control Human Plasma
  Mean (% of Control): 100.0%
[1]; Table 13, Human Plasma lot KC011886
  Mean (% of Control): 132.78%
[1]; Table 13, Human Plasma lot KC011892
  Mean (% of Control): 127.51%
[1]; Table 13, Human Plasma lot KC28719
  Mean (% of Control): 126.03%
[1]; Table 13, Human Plasma lot KC032907
  Mean (% of Control): 125.02%
[1]; Table 13, bound directly to magnetic beads, Control Human Plasma
  Mean: 154.99
[1]; Table 13, bound directly to magnetic beads, Human Plasma lot KC011886
  Mean: 205.80
[1]; Table 13, bound directly to magnetic beads, Human Plasma lot KC011892
  Mean: 197.63
[1]; Table 13, bound directly to magnetic beads, Human Plasma lot KC28719
  Mean: 195.33
[1]; Table 13, bound directly to magnetic beads, Human Plasma lot KC032907
  Mean: 193.77
[2]; Table 10, 15 nL 10% normal human brain homogenate, 70% human plasma, covalently attached to beads
  Mean binding: 13.2
[2]; Table 11, TBSTT with 70% Human Plasma
  Mean binding: 269.5
[2]; Table 11, TBSTT with 70% Human Plasma containing 20 nL 10% normal human brain homogenate
  Mean binding: 306.4
[3]; 47 pg PrP^Sc pulled down vs 7 pg of about 488 pg PrP^C
  enrichment of PrP^Sc over PrP^C: ≥ 70 fold
[3]; 0.05 μl vCJD BH spiked into 70 μl plasma, versus background
  increase in signal: four fold increase in signal
[3]; 70 ul plasma (70%) + 50 nl 10% vCJD BH, 3M GdnSCN
  LU, Pulldown, PrPSc: 97.1 LU
[3]; 70 ul plasma (70%) + 50 nl 10% vCJD BH, 3M GdnSCN, rPrP standard curve
  pg, Pulldown, PrPSc: 47 pg and 47.1 pg
[4]; [15]
  LU, Pulldown, PrPC: 25.6 LU
  pg, Pulldown, PrPC: 7.3 pg
[4]; 70 ul plasma (70%)
  LU, Pulldown, PrPC: 23 LU and 23.3 LU
  pg, Pulldown, PrPC: 6.0 pg
[4]; plasma containing about 488 pg of PrP^C
  PrP^C bound by peptoid: 7 pg
[5]; 15 μl GdnSCN 3M, pH 5.9
  S/N: 11
[5]; [16]
  AVE vCJD + Plasma: 430.4
[5]; 70 μl TBST, pH 7.5
  AVE vCJD + Plasma: 25.5
  S/N: 2
[5]; H3PO4 0.00007M, pH 4
  S/N: 1
[5]; H3PO4 0.00075M, pH 3
  S/N: 1
[5]; H3PO4 0.12M, pH 2
  S/N: 1
[5]; H3PO4 0.5M, pH 1
  S/N: 9
[5]; [17]
  AVE vCJD + Plasma: 27.0
[5]; [18]
  AVE vCJD + Plasma: 26.6
[5]; [19]
  AVE vCJD + Plasma: 122.5
[5]; [20]
  AVE vCJD + Plasma: 264.0
[5]; NaOH 0.0001M, pH 10
  S/N: 0
[5]; NaOH 0.001M, pH 11
  S/N: 1
[5]; NaOH 0.1M, pH 12
  S/N: 5
[5]; NaOH 0.1M, pH 13
  S/N: 30
[5]; [21]
  AVE vCJD + Plasma: 34.8
[5]; [22]
  AVE vCJD + Plasma: 11.8
[5]; [23]
  AVE vCJD + Plasma: 76.1
[5]; [24]
  AVE vCJD + Plasma: 458.1
[6]; [16]
  AVE Plasma: 37.7
[6]; 70 μl TBST, pH 7.5
  AVE Plasma: 11.8
[6]; [17]
  AVE Plasma: 26.8
[6]; [18]
  AVE Plasma: 25.8
[6]; [19]
  AVE Plasma: 92.7
[6]; [20]
  AVE Plasma: 30.4
[6]; [21]
  AVE Plasma: 197.6
[6]; [22]
  AVE Plasma: 14.6
[6]; [23]
  AVE Plasma: 16.1
[6]; [24]
  AVE Plasma: 15.1
[7]; [25]
  AVE vCJD + Plasma: 60.5
[7]; 100 μl TBST, pH 7.5
  AVE vCJD + Plasma: 2.2
  S/N: 1
[7]; H3PO4 0.00007M, pH 4
  S/N: 1
[7]; H3PO4 0.00075M, pH 3
  S/N: 1
[7]; H3PO4 0.12M, pH 2
  S/N: 2
[7]; H3PO4 0.5M, pH 1
  S/N: 5
[7]; [17]
  AVE vCJD + Plasma: 7.6
[7]; [18]
  AVE vCJD + Plasma: 21.8
[7]; [19]
  AVE vCJD + Plasma: 14.6
[7]; [20]
  AVE vCJD + Plasma: 57.1
[7]; NaOH 0.0001M, pH 10
  S/N: 1
[7]; NaOH 0.001M, pH 11
  S/N: 2
[7]; NaOH 0.1M, pH 12
  S/N: 1
[7]; NaOH 0.1M, pH 13
  S/N: 7
[7]; [21]
  AVE vCJD + Plasma: 2.8
[7]; [22]
  AVE vCJD + Plasma: 8.8
[7]; [23]
  AVE vCJD + Plasma: 7.3
[7]; [24]
  AVE vCJD + Plasma: 36.9
[8]; [25]
  AVE Plasma: 5.5
[8]; 100 μl TBST, pH 7.5
  AVE Plasma: 2.2
[8]; [17]
  AVE Plasma: 8.7
[8]; [18]
  AVE Plasma: 19.9
[8]; [19]
  AVE Plasma: 8.0
[8]; [20]
  AVE Plasma: 11.9
[8]; [21]
  AVE Plasma: 3.1
[8]; [22]
  AVE Plasma: 3.6
[8]; [23]
  AVE Plasma: 5.1
[8]; [24]
  AVE Plasma: 5.2
[9]; vCJD 0 nL BH/asy (background)
  Avg LU, 3F4 Plate: 4.55 LU
  Avg LU, C17 Plate: 45.56 LU
  S/N, 3F4 Plate: 1.0
  S/N, C17 Plate: 1.0
[9]; vCJD 1 nL BH/asy
  Avg LU, 3F4 Plate: 8.90 LU
  Avg LU, C17 Plate: 50.75 LU
  S/N, 3F4 Plate: 2.0
  S/N, C17 Plate: 1.1
[9]; vCJD 5 nL BH/asy
  Avg LU, 3F4 Plate: 19.34 LU
  Avg LU, C17 Plate: 74.71 LU
  S/N, 3F4 Plate: 4.3
  S/N, C17 Plate: 1.6
[9]; vCJD 10 nL BH/asy
  S/N, 3F4 Plate: 13.2
  S/N, C17 Plate: 2.7
[9]; [26]
  Avg LU, 3F4 Plate: 60.07 LU
[9]; [27]
  Avg LU, C17 Plate: 124.18 LU
[10]; vCJD 0 nL BH/asy (background)
  Avg LU, 3F4 Beads: 1.62 LU
  Avg LU, C17 Beads: 11.84 LU
  S/N, 3F4 Beads: 1.0
  S/N, C17 Beads: 1.0
[10]; vCJD 1 nL BH/asy
  Avg LU, 3F4 Beads: 3.11 LU
  Avg LU, C17 Beads: 16.53 LU
  S/N, 3F4 Beads: 1.9
  S/N, C17 Beads: 1.4
[10]; vCJD 5 nL BH/asy
  Avg LU, 3F4 Beads: 2.25 LU
  Avg LU, C17 Beads: 26.08 LU
  S/N, 3F4 Beads: 1.4
  S/N, C17 Beads: 2.2
[10]; vCJD 10 nL BH/asy
  S/N, 3F4 Beads: 1.7
  S/N, C17 Beads: 3.5
[10]; [26]
  Avg LU, 3F4 Beads: 2.83 LU
[10]; [27]
  Avg LU, C17 Beads: 41.86 LU
[11]; 10 nL of 10% vCJD BH in 50% pooled normal human plasma, XIIb-beads, 0.1N NaOH
  vCJD BH (RLU) ave, Pulldown: 53.0 RLU
[11]; pulldown signal vs directly GdnSCN-denatured 10 nL 10% vCJD sample
  pulldown efficiency: ~100%
[12]; 10 nL of 10% normal BH in 50% pooled normal human plasma, XIIb-beads
  Nomal BH (RLU) ave, Pulldown: 9.9 RLU
[12]; no BH, 50% pooled normal human plasma, XIIb-beads (background)
  No BH (RLU) ave, Pulldown: 9.0 RLU
[13]; sCJD brain homogenate
  GdnHCl1/2 (GdnHCl concentration at half-maximal denaturation): 2.0 M
[13]; vCJD brain homogenate
  GdnHCl1/2 (GdnHCl concentration at half-maximal denaturation): 1.6 M
